Patent publication US20130288389A1

Legend:
Test in all cases: cell-based or functional assay
[1] = target: human sporadic CJD (sCJD) brain homogenate PrP-res (human) (UniProt P04156)
[2] = target: PrP^Sc of 263K scrapie-infected Syrian golden hamsters (Syrian golden hamster) (UniProt P04273)
[3] = target: sheep ARQ scrapie brain homogenate PrP-res (sheep) (UniProt P23907)

monoclonal antibody 15B3
eQuIC: lowest PrP-res amount detected in 0.5 ml human cerebrospinal fluid [1]: 10 ag | eQuIC: lowest PrP-res amount detected in 0.5 ml human plasma [1]: 10 ag | IP-RT-QuIC (ThT fluorescence): lowest brain dilution detected in human plasma (dilution of brain tissue) [2]: 1e-10 | IP-RTQ speed and sensitivity with higher 15B3 content on beads (fold higher 15B3 on beads) [2]: 12 | eQuIC ("20×" 15B3 beads): lowest PrP-res amount detected in 0.5 ml plasma [3]: 100 ag
